Source: US20140349310A1 (Eli Lilly, published 2014)

B1: anti-c-Met monoclonal antibody OptD11 (mouse IgG1 subtype) (antibody, V domains shown)
VH: EVQLQQSGPELVKPGASVRISCKASGYTFTSRYIHWMKQRPGQGLEWIGWIYPVTGDTYYNEKFKGKATLTSDKSSSTAYMQISSLTSDDSAVYFCARGGGMFYYWGQGTLVTVSA
VL: ETTVTQSPALMAASPGEKVTITCSVSSSISSTNLHWYQQKSETSPKPWIYGTSNLASGVPVRFGGSGSGTSYSLTISSMEAEDAATYYCQQWSSYPYTFGGGTKLEIKR
notes: Murine IgG1; also called mAb OptD11; OptD11 c-Met antibody
B2: anti-c-Met therapeutic antibody C8-H241 (human IgG4 subtype) (antibody, V domains shown)
VH: QVQLVQSGAEVKKPGASVKVSCKASGYTFTDYYMHWVRQAPGQGLEWMGRVNPNRRGTTYNQKFEGRVTMTTDTSTSTAYMELRSLRSDDTAVYYCARANWLDYWGQGTTVTVSS
VL: DIQMTQSPSSLSASVGDRVTITCSVSSSVSSIYLHWYQQKPGKAPKLLIYSTSNLASGVPSRFSGSGSGTDFTLTISSLQPEDFATYYCQVYSGYPLTFGGGTKVEIKR
notes: also called mAb C8-H241

Legend:
[1] = molecular target: T1, human c-Met ECD expressed as Fc fusion protein with a flag- and His-tag (Flis-tag) at the C-terminus of the Fc (human); assay: SPR (BIAcore): antibody injected over c-Met-ECD-Fc-Flis captured at 130 Ru; the sequential experiment also includes C8-H241
T1 construct: also called human c-Met-ECD-Fc-Flis; c-Met-ECD-Fc-Flis
T1 sequence (chain, as listed by the source): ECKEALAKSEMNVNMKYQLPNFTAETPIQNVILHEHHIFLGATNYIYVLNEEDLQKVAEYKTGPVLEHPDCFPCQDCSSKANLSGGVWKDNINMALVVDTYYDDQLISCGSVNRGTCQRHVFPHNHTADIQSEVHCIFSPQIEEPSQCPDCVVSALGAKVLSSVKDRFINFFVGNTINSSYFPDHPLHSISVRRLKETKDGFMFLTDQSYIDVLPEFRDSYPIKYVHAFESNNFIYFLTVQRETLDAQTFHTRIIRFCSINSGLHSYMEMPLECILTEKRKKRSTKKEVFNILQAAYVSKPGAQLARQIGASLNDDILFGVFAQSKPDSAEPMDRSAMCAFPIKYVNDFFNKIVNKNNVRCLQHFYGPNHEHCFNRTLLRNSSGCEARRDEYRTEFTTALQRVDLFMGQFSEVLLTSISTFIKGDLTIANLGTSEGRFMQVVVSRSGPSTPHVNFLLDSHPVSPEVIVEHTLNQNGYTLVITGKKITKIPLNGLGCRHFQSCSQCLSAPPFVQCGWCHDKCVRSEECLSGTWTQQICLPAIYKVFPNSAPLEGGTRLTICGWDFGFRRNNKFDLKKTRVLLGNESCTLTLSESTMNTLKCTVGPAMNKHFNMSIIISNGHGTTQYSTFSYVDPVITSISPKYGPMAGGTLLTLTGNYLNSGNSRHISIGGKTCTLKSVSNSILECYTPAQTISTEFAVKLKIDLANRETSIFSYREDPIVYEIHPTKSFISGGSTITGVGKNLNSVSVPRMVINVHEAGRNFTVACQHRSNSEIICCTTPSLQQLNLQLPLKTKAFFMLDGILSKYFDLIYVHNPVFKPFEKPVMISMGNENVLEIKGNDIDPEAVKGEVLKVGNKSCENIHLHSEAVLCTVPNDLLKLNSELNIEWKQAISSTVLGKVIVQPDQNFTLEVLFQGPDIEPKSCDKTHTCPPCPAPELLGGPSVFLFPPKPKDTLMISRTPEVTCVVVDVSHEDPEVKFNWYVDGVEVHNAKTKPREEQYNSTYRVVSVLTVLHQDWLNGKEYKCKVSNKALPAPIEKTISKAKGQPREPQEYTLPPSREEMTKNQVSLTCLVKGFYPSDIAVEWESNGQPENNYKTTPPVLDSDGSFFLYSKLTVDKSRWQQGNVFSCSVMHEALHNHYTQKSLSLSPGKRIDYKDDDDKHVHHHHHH

[2] = molecular target: T2, cynomolgus monkey c-Met ECD expressed as Fc fusion protein with a flag- and His-tag (Flis-tag) at the … (cynomolgus monkey); assay: SPR (Biacore): antibody captured by goat anti-mouse Fc, c-Met ECD-Fc-Flis as analyte, 25 C, 1:1 Langmuir model
T2 construct: also called cynomolgus monkey c-Met-Flis-Fc ECD
T2 sequence (chain, as listed by the source limits assumed): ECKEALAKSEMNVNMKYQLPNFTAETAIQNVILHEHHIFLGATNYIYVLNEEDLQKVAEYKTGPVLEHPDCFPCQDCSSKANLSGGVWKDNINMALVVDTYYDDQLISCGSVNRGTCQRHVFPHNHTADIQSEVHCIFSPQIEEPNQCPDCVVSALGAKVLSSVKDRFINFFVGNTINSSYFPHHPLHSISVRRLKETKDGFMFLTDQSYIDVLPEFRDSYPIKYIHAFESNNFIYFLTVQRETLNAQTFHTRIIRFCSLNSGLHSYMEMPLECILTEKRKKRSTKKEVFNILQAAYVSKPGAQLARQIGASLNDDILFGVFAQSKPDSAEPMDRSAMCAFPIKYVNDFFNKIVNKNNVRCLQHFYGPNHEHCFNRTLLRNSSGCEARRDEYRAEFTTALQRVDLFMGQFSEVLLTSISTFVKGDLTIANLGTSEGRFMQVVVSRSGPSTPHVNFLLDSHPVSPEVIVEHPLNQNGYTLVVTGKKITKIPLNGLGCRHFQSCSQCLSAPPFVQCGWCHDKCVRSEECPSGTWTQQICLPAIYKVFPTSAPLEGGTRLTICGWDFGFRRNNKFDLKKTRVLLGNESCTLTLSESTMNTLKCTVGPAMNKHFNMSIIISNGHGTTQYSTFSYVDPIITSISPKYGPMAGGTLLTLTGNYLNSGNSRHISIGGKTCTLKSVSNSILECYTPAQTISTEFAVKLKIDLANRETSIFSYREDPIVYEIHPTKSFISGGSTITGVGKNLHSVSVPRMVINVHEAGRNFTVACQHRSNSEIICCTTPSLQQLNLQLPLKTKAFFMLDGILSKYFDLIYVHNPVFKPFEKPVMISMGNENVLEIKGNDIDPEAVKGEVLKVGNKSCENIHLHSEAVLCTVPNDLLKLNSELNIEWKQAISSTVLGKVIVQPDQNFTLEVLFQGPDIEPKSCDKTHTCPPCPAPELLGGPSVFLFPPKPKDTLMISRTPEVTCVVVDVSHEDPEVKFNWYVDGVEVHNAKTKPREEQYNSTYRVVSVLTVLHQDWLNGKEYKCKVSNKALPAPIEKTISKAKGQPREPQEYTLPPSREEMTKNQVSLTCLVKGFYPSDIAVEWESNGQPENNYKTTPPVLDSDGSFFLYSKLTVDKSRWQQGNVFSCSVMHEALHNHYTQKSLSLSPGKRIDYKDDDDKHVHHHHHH
Experimental: (§1) Briefly described, the anti-c-Met monoclonal antibody of the invention may be dissolved in HBS-EP buffer (150 mM sodium chloride, 3 mM EDTA, 0.005% (w/v) surfactant P-20, and 10 mM N-2-hydroxyethylpiperazine-N′-2-ethanesulfonic acid (HEPES) at pH 7.4; #BR-1001-88). Goat anti-mouse Fc antibody is immobilized on flow cells 1 to 4 of a CM5 sensor chip at a level of 4000 response units (RUs) using amine coupling chemistry to capture anti-c-Met antibodies.
(§2) Binding may be evaluated using multiple analytical cycles. Each cycle is performed at a flow rate of 50 μl/minute, and may consist of the following steps: injection of about 10 μl of an anti-c-Met monoclonal antibody at 10 μg/ml aiming at a capture of 40-100 RUs, injection of 250 μl of human or cynomolgus monkey c-Met-Flis-Fc ECD (starting at 100 nM and using two-fold serial dilutions for each cycle) followed by 20 minutes for dissociation, and regeneration using about 30 μl of 10 mM glycine hydrochloride, pH 1.5. Association and dissociation rates for each cycle may be evaluated using a “1:1 (Langmuir) binding” model in the BIAevaluation software 4.1.

[3] = molecular target: T1, human c-Met ECD expressed as Fc fusion …; assay: as above
Experimental: as §1, §2

[4] = molecular target: B2; assay: ELISA control: 2 µg/mL C8-H241 (human IgG4 subtype) coated, no cMet ECD, 0.5 µg/mL biotinylated OptD11 detection
[5] = molecular target: T1, human c-Met ECD expressed as Fc fusion …; assay: SPR (BIAcore): antibody injected over c-Met-ECD-Fc-Flis captured at 130 Ru

Stoichiometry (mAb to cMet-Fc) [1]	Kd [2]	koff [2]	kon [2]	Kd [3]	koff [3]	kon [3]	binding result [4]	Stoichiometry (mAb to cMet-Fc) [5]	Binder
0.89	0.35 nM	4.7e-05 s⁻¹	130000 M⁻¹ s⁻¹	0.12 nM	9e-06 s⁻¹	160000 M⁻¹ s⁻¹	no binding (tested: 0.5 µg/mL)	–	B1
–	–	–	–	–	–	–	–	0.91	B2
